We go through one molecule from publication PMC6392013 (Methods in molecular biology (Clifton, N.J.), 2012).

The assay concerns the target ubiquitin (UniProt P0CG48 1-76). Kind of assay: NMR intermolecular NOESY.

B1: S5a (196–306) (domain or fragment, UniProt P55036 196-306, looked up)
chain: MLGLGASDFEFGVDPSADPELALALRVSMEEQRQRQEEEARRAAAASAAEAGIATTGTEDSDDALLKMTISQQEFGRTGLPDLSSMTEEEQIAYAMQMSLQGAEFGQAESA
Turning to B1, the binding result is reported as “binds”.
